Positions count from the first letter of the chain named. Names and notes keep the numbering of the source.
B1: CD80 E35D/D46V/M47L/V68M/L85Q/E88D IgV-Fc, (EAAAK)3 linker (Fc fusion, not shown: a dimerising Fc or GST)
chain: VIHVTKEVKEVATLSCGHNVSVEELAQTRIYWQKDKKMVLTMMSGVLNIWPEYKNRTIFDITNNLSIMILALRPSDEGTYECVVQKYDKDAFKREHLAEVTLSVKADEAAAKEAAAKEAAAK
B2: CD80 E35D/M47V/N48K/V68M/K89N IgV-Fc, EAAAK linker (Fc fusion, not shown: a dimerising Fc or GST)
chain: VIHVTKEVKEVATLSCGHNVSVEELAQTRIYWQKDKKMVLTMMSGDVKIWPEYKNRTIFDITNNLSIMILALRPSDEGTYECVVLKYENDAFKREHLAEVTLSVKADEAAAK
B3: CD80 E35D/D46V/M47L/V68M/L85Q/E88D IgV-Fc, EAAAK linker (Fc fusion, not shown: a dimerising Fc or GST)
chain: B2 chain with D46V, V47L, K48N, L85Q, E88D, N89K
B4: CD80 E35D/M47V/N48K/V68M/K89N IgV-Fc, delta linker (Fc fusion)
chain: VIHVTKEVKEVATLSCGHNVSVEELAQTRIYWQKDKKMVLTMMSGDVKIWPEYKNRTIFDITNNLSIMILALRPSDEGTYECVVLKYENDAFKREHLAEVTLSVKTHTCPPCPAPEAEGAPSVFLFPPKPKDTLMISRTPEVTCVVVDVSHEDPEVKFNWYVDGVEVHNAKTKPREEQYNSTYRVVSVLTVLHQDWLNGKEYKCKVSNKALPAPIEKTISKAKGQPREPQVYTLPPSREEMTKNQVSLTCLVKGFYPSDIAVEWESNGQPENNYKTTPPVLDSDGSFFLYSKLTVDKSRWQQGNVFSCSVMHEALHNHYTQKSLSLSPG
notes: Fused directly to the Fc with no additional linker; also called E35D/M47V/N48K/V68M/K89N delta
B5: CD80 E35D/D46V/M47L/V68M/L85Q/E88D IgV-Fc, delta linker (Fc fusion)
chain: B4 chain with D46V, V47L, K48N, L85Q, E88D, N89K
notes: Fused directly to the Fc with no additional linker; also called E35D/D46V/M47L/V68M/L85Q/E88D delta

What follows are binders tested against T1, human PD-L1 (human, UniProt Q9NZQ7 19-290) (assay: flow cytometry on CHO cells stably expressing PD-L1).
T1 construct: also called huPD-L1; CD274
T1 sequence (Q9NZQ7 19-290): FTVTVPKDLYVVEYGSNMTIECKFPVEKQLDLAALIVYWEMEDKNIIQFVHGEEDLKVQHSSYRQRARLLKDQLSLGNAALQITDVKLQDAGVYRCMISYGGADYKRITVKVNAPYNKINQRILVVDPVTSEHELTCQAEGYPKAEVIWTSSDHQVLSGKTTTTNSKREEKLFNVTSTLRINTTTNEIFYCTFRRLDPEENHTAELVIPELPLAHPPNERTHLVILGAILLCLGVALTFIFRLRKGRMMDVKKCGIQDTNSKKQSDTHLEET

Binder | MFI at 33.3 nM [MFI]
B1 | 25500
B2 | 22900
B3 | 24800
B4 | 20400
B5 | 22500

These binders were tested against T2, human CD28 (human, UniProt P10747 19-220) (assay: flow cytometry on Jurkat cells (CD28); vs CD80 WT IgV-Fc).
T2 construct: Endogenous CD28 on Jurkat/IL2 reporter cells

Binder | Fold change to WT CD80 [fold]
B1 | 3.5
B2 | 47.1
B3 | 10.1
B4 | 83.7
B5 | 74.7

These binders were tested against T2, human CD28 (assay: flow cytometry on Jurkat cells (CD28)).

Binder | MFI at 33.3 nM [MFI]
B1 | 197
B2 | 2630
B3 | 563
B4 | 4680
B5 | 4170

What follows are binders tested against T1, human PD-L1 (assay: flow cytometry on CHO cells stably expressing PD-L1; vs CD80 WT IgV-Fc).

Binder | Fold change to WT CD80 [fold]
B1 | 546
B2 | 491
B3 | 533
B4 | 439
B5 | 484

These binders were tested against T3, human CTLA-4 (human, UniProt P16410 36-223) (assay: flow cytometry on CHO cells stably expressing CTLA4).
T3 construct: also called huCTLA4
T3 sequence (P16410 36-223): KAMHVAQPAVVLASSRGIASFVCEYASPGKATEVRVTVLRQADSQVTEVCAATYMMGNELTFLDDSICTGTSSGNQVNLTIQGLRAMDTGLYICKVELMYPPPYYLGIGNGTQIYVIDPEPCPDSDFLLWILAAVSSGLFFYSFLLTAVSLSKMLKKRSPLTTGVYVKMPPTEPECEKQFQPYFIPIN

Binder | MFI at 33.3 nM [MFI]
B1 | 32000
B2 | 27500
B3 | 29000
B4 | 3090
B5 | 12200

What follows are binders tested against T1, human PD-L1 (assay: cell-based or functional assay).

Binder | Fold Increase over WT CD80-IgV-Fc, Jurkat/IL2 + CHO/OKT3/PD-L1 Reporter Assay [fold] | RLU, Jurkat/IL2 + CHO/OKT3/PD-L1 Reporter Assay, CD80 Conc 5.0 nM [RLU]
B1 | 5.25 | 2050
B2 | 4.38 | 1710
B3 | 3.75 | 1460
B4 | 2.63 | 1030
B5 | 2.77 | 1080

These binders were tested against T3, human CTLA-4 (assay: flow cytometry on CHO cells stably expressing CTLA4; vs CD80 WT IgV-Fc).

Binder | Fold change to WT CD80 [fold]
B1 | 26.8
B2 | 23
B3 | 24.2
B4 | 2.6
B5 | 10.2

What follows are binders tested against T1, human PD-L1 (assay: flow cytometry; PD-L1 MFI over CD28 MFI).

Binder | Ratio of PDL1:CD28 [ratio]
B1 | 129
B2 | 9
B3 | 44
B4 | 4
B5 | 5
